Experimental data published in patent US20190233495A1 (Sanofi, published 2019).
Non-standard residues stand in square brackets, D forms with d. 1Nal = N[C@@H](Cc1cccc2ccccc12)C(=O)O; Nle = CCCC[C@H](N)C(=O)O; Aib = CC(C)(N)C(=O)O

T1: RXFP1 receptor (UniProt Q9HBX9 1-757, limits assumed)
T1 sequence (looked up): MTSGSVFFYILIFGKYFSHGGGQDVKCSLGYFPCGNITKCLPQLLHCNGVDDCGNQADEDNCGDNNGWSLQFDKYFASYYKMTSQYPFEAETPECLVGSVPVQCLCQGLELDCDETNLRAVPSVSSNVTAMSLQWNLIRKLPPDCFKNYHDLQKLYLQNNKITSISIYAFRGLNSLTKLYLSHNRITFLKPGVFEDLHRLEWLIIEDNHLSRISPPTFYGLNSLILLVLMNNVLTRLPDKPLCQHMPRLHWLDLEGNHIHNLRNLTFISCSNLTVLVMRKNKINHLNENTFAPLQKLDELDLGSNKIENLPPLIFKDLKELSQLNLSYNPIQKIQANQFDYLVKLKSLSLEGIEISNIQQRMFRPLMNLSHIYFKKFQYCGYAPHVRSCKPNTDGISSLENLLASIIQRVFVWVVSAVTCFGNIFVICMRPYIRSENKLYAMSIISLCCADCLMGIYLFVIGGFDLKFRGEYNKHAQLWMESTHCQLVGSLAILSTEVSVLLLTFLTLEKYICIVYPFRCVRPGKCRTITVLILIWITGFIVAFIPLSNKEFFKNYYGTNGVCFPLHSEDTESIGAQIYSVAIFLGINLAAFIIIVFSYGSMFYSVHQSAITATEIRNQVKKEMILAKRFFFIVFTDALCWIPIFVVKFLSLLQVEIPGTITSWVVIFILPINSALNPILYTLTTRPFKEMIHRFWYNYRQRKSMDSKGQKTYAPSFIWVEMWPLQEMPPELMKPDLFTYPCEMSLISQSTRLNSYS

B1: SEQ ID NO: 32 (peptide)
peptide: Ac-LEGREKVRAK(Ac)I[Aib][Aib]EG[Nle]STWS[Aib]RKL-NH2
SMILES: CCCC[C@H](NC(=O)CNC(=O)[C@H](CCC(=O)O)NC(=O)C(C)(C)NC(=O)C(C)(C)NC(=O)[C@@H](NC(=O)[C@H](CCCCNC(C)=O)NC(=O)[C@H](C)NC(=O)[C@H](CCCNC(=N)N)NC(=O)[C@@H](NC(=O)[C@H](CCCCN)NC(=O)[C@H](CCC(=O)O)NC(=O)[C@H](CCCNC(=N)N)NC(=O)CNC(=O)[C@H](CCC(=O)O)NC(=O)[C@H](CC(C)C)NC(C)=O)C(C)C)[C@@H](C)CC)C(=O)N[C@@H](CO)C(=O)N[C@H](C(=O)N[C@@H](Cc1c[nH]c2ccccc12)C(=O)N[C@@H](CO)C(=O)NC(C)(C)C(=O)N[C@@H](CCCNC(=N)N)C(=O)N[C@@H](CCCCN)C(=O)N[C@@H](CC(C)C)C(N)=O)[C@@H](C)O
B2: SEQ ID NO: 33 (peptide)
peptide: Ac-LEGREKVRK(Ac)QI[Aib][Aib]EG[Nle]STWS[Aib]RKK-NH2
SMILES: CCCC[C@H](NC(=O)CNC(=O)[C@H](CCC(=O)O)NC(=O)C(C)(C)NC(=O)C(C)(C)NC(=O)[C@@H](NC(=O)[C@H](CCC(N)=O)NC(=O)[C@H](CCCCNC(C)=O)NC(=O)[C@H](CCCNC(=N)N)NC(=O)[C@@H](NC(=O)[C@H](CCCCN)NC(=O)[C@H](CCC(=O)O)NC(=O)[C@H](CCCNC(=N)N)NC(=O)CNC(=O)[C@H](CCC(=O)O)NC(=O)[C@H](CC(C)C)NC(C)=O)C(C)C)[C@@H](C)CC)C(=O)N[C@@H](CO)C(=O)N[C@H](C(=O)N[C@@H](Cc1c[nH]c2ccccc12)C(=O)N[C@@H](CO)C(=O)NC(C)(C)C(=O)N[C@@H](CCCNC(=N)N)C(=O)N[C@@H](CCCCN)C(=O)N[C@@H](CCCCN)C(N)=O)[C@@H](C)O
B3: SEQ ID NO: 27 (peptide)
peptide: Ac-LEGREKVRAK(Ac)I[Aib][Aib]EG[Nle]STWS[Aib]RKK(Ac)K-NH2
SMILES: CCCC[C@H](NC(=O)CNC(=O)[C@H](CCC(=O)O)NC(=O)C(C)(C)NC(=O)C(C)(C)NC(=O)[C@@H](NC(=O)[C@H](CCCCNC(C)=O)NC(=O)[C@H](C)NC(=O)[C@H](CCCNC(=N)N)NC(=O)[C@@H](NC(=O)[C@H](CCCCN)NC(=O)[C@H](CCC(=O)O)NC(=O)[C@H](CCCNC(=N)N)NC(=O)CNC(=O)[C@H](CCC(=O)O)NC(=O)[C@H](CC(C)C)NC(C)=O)C(C)C)[C@@H](C)CC)C(=O)N[C@@H](CO)C(=O)N[C@H](C(=O)N[C@@H](Cc1c[nH]c2ccccc12)C(=O)N[C@@H](CO)C(=O)NC(C)(C)C(=O)N[C@@H](CCCNC(=N)N)C(=O)N[C@@H](CCCCN)C(=O)N[C@@H](CCCCNC(C)=O)C(=O)N[C@@H](CCCCN)C(N)=O)[C@@H](C)O
B4: SEQ ID NO: 29 (peptide)
peptide: Ac-LEGREKVRAK(Ac)I[Aib][Aib]EG[Nle]ST[1Nal]S[Aib]RKK(Ac)-NH2
SMILES: CCCC[C@H](NC(=O)CNC(=O)[C@H](CCC(=O)O)NC(=O)C(C)(C)NC(=O)C(C)(C)NC(=O)[C@@H](NC(=O)[C@H](CCCCNC(C)=O)NC(=O)[C@H](C)NC(=O)[C@H](CCCNC(=N)N)NC(=O)[C@@H](NC(=O)[C@H](CCCCN)NC(=O)[C@H](CCC(=O)O)NC(=O)[C@H](CCCNC(=N)N)NC(=O)CNC(=O)[C@H](CCC(=O)O)NC(=O)[C@H](CC(C)C)NC(C)=O)C(C)C)[C@@H](C)CC)C(=O)N[C@@H](CO)C(=O)N[C@H](C(=O)N[C@@H](Cc1cccc2ccccc12)C(=O)N[C@@H](CO)C(=O)NC(C)(C)C(=O)N[C@@H](CCCNC(=N)N)C(=O)N[C@@H](CCCCN)C(=O)N[C@@H](CCCCNC(C)=O)C(N)=O)[C@@H](C)O
B5: SEQ ID NO: 25 (peptide)
peptide: Ac-LEGREKVRAK(Ac)I[Aib][Aib]EG[Nle]STWSK(Ac)RKKK-NH2
SMILES: CCCC[C@H](NC(=O)CNC(=O)[C@H](CCC(=O)O)NC(=O)C(C)(C)NC(=O)C(C)(C)NC(=O)[C@@H](NC(=O)[C@H](CCCCNC(C)=O)NC(=O)[C@H](C)NC(=O)[C@H](CCCNC(=N)N)NC(=O)[C@@H](NC(=O)[C@H](CCCCN)NC(=O)[C@H](CCC(=O)O)NC(=O)[C@H](CCCNC(=N)N)NC(=O)CNC(=O)[C@H](CCC(=O)O)NC(=O)[C@H](CC(C)C)NC(C)=O)C(C)C)[C@@H](C)CC)C(=O)N[C@@H](CO)C(=O)N[C@H](C(=O)N[C@@H](Cc1c[nH]c2ccccc12)C(=O)N[C@@H](CO)C(=O)N[C@@H](CCCCNC(C)=O)C(=O)N[C@@H](CCCNC(=N)N)C(=O)N[C@@H](CCCCN)C(=O)N[C@@H](CCCCN)C(=O)N[C@@H](CCCCN)C(N)=O)[C@@H](C)O
B6: SEQ ID NO: 28 (peptide)
peptide: Ac-LEGREKVRAK(Ac)I[Aib][Aib]EG[Nle]STWS[Aib]RKK(Ac)K(Ac)-NH2
SMILES: CCCC[C@H](NC(=O)CNC(=O)[C@H](CCC(=O)O)NC(=O)C(C)(C)NC(=O)C(C)(C)NC(=O)[C@@H](NC(=O)[C@H](CCCCNC(C)=O)NC(=O)[C@H](C)NC(=O)[C@H](CCCNC(=N)N)NC(=O)[C@@H](NC(=O)[C@H](CCCCN)NC(=O)[C@H](CCC(=O)O)NC(=O)[C@H](CCCNC(=N)N)NC(=O)CNC(=O)[C@H](CCC(=O)O)NC(=O)[C@H](CC(C)C)NC(C)=O)C(C)C)[C@@H](C)CC)C(=O)N[C@@H](CO)C(=O)N[C@H](C(=O)N[C@@H](Cc1c[nH]c2ccccc12)C(=O)N[C@@H](CO)C(=O)NC(C)(C)C(=O)N[C@@H](CCCNC(=N)N)C(=O)N[C@@H](CCCCN)C(=O)N[C@@H](CCCCNC(C)=O)C(=O)N[C@@H](CCCCNC(C)=O)C(N)=O)[C@@H](C)O
B7: SEQ ID NO: 3 (peptide)
peptide: Ac-LEGREKVRAQI[Aib][Aib]EG[Nle]STWS[Aib]RKK-NH2
SMILES: CCCC[C@H](NC(=O)CNC(=O)[C@H](CCC(=O)O)NC(=O)C(C)(C)NC(=O)C(C)(C)NC(=O)[C@@H](NC(=O)[C@H](CCC(N)=O)NC(=O)[C@H](C)NC(=O)[C@H](CCCNC(=N)N)NC(=O)[C@@H](NC(=O)[C@H](CCCCN)NC(=O)[C@H](CCC(=O)O)NC(=O)[C@H](CCCNC(=N)N)NC(=O)CNC(=O)[C@H](CCC(=O)O)NC(=O)[C@H](CC(C)C)NC(C)=O)C(C)C)[C@@H](C)CC)C(=O)N[C@@H](CO)C(=O)N[C@H](C(=O)N[C@@H](Cc1c[nH]c2ccccc12)C(=O)N[C@@H](CO)C(=O)NC(C)(C)C(=O)N[C@@H](CCCNC(=N)N)C(=O)N[C@@H](CCCCN)C(=O)N[C@@H](CCCCN)C(N)=O)[C@@H](C)O
B8: SEQ ID NO: 26 (peptide)
peptide: Ac-LEGREKVRAK(Ac)I[Aib][Aib]EG[Nle]STWSK(Ac)RKKK(Ac)-NH2
SMILES: CCCC[C@H](NC(=O)CNC(=O)[C@H](CCC(=O)O)NC(=O)C(C)(C)NC(=O)C(C)(C)NC(=O)[C@@H](NC(=O)[C@H](CCCCNC(C)=O)NC(=O)[C@H](C)NC(=O)[C@H](CCCNC(=N)N)NC(=O)[C@@H](NC(=O)[C@H](CCCCN)NC(=O)[C@H](CCC(=O)O)NC(=O)[C@H](CCCNC(=N)N)NC(=O)CNC(=O)[C@H](CCC(=O)O)NC(=O)[C@H](CC(C)C)NC(C)=O)C(C)C)[C@@H](C)CC)C(=O)N[C@@H](CO)C(=O)N[C@H](C(=O)N[C@@H](Cc1c[nH]c2ccccc12)C(=O)N[C@@H](CO)C(=O)N[C@@H](CCCCNC(C)=O)C(=O)N[C@@H](CCCNC(=N)N)C(=O)N[C@@H](CCCCN)C(=O)N[C@@H](CCCCN)C(=O)N[C@@H](CCCCNC(C)=O)C(N)=O)[C@@H](C)O
B9: SEQ ID NO: 31 (peptide)
peptide: Ac-LEGREKVRAK(Ac)I[Aib][Aib]EG[Nle]STWS[Aib]RKQ-NH2
SMILES: CCCC[C@H](NC(=O)CNC(=O)[C@H](CCC(=O)O)NC(=O)C(C)(C)NC(=O)C(C)(C)NC(=O)[C@@H](NC(=O)[C@H](CCCCNC(C)=O)NC(=O)[C@H](C)NC(=O)[C@H](CCCNC(=N)N)NC(=O)[C@@H](NC(=O)[C@H](CCCCN)NC(=O)[C@H](CCC(=O)O)NC(=O)[C@H](CCCNC(=N)N)NC(=O)CNC(=O)[C@H](CCC(=O)O)NC(=O)[C@H](CC(C)C)NC(C)=O)C(C)C)[C@@H](C)CC)C(=O)N[C@@H](CO)C(=O)N[C@H](C(=O)N[C@@H](Cc1c[nH]c2ccccc12)C(=O)N[C@@H](CO)C(=O)NC(C)(C)C(=O)N[C@@H](CCCNC(=N)N)C(=O)N[C@@H](CCCCN)C(=O)N[C@@H](CCC(N)=O)C(N)=O)[C@@H](C)O

target: T1, RXFP1 receptor; assay: cell-based or functional assay

Binder | cAMP assay in OVCAR 5 cells EC50 | cAMP assay in OVCAR 5 cells Emax
B1 | 0.0386 µM | 95%
B2 | 0.0863 µM | 105%
B3 | 0.0095 µM | 95%
B4 | 0.0138 µM | 98%
B5 | 0.0042 µM | 100%
B6 | 0.0225 µM | 92%
B7 | 0.012 µM | 97%
B8 | 0.0145 µM | 100%
B9 | 0.0517 µM | 96%
